In patent US20180371051A1 (published 2018):
One block for each binder: values may come before it.

What was measured:
soluble, wild-type MICA [1] = target: T1, soluble, wild-type MICA (human, UniProt Q29983 24-299); test: SPR; Two State Reaction model
T1 chain: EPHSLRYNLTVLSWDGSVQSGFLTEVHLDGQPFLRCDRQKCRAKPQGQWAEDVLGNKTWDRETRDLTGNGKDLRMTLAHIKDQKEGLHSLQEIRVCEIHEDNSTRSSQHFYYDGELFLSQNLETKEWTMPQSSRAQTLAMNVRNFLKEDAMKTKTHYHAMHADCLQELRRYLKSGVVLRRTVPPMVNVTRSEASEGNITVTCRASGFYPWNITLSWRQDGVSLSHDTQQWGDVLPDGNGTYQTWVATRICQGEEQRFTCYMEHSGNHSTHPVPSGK

soluble, wild-type MICA [2] = target: T1, soluble, wild-type MICA; test: SPR; 1:1 binding model
soluble, wild-type MICA [3] = target: T1, soluble, wild-type MICA; test: SPR

Kd (soluble, wild-type MICA [1]): 9.72 nM | Kd (soluble, wild-type MICA [2]): 4.6 nM | Kd (soluble, wild-type MICA [3]): 4.6 nM
B1: NKG2D^scd7 (heptamerized single-chain NKG2D dimer, Example 2) (receptor)
chain: GSRSAGAHAGWETPEGCEQVLTGKRLMQCLPNPEDVKMALEVYKLSLEIEQLELQRDSARQSTLDKELNQEVQIPLTESYCGPCPKNWICYKNNCYQFFDESKNWYESQASCMSQNASLLKVYSKEDQDLLKLVKSYHWMGLVHIPTNGSWQWEDGSILSPNLLTIIEMQKGDCALYASSFKGYIENCSTPNTYICMQRTVQIPLTESYCGPCPKNWICYKNNCYQFFDESKNWYESQASCMSQNASLLKVYSKEDQDLLKLVKSYHWMGLVHIPTNGSWQWEDGSILSPNLLTIIEMQKGDCALYASSFKGYIENCSTPNTYICMQRTV
modifications: FITC-conjugated for flow cytometry (two fluorophores per protomer)

Kd (soluble, wild-type MICA [3]): 13.8 nM
B2: NKG2D^scd (single-chain dimer form of NKG2D) (receptor)
chain: NQEVQIPLTESYCGPCPKNWICYKNNCYQFFDESKNWYESQASCMSQNASLLKVYSKEDQDLLKLVKSYHWMGLVHIPTNGSWQWEDGSILSPNLLTIIEMQKGDCALYASSFKGYIENCSTPNTYICMQRTVQIPLTESYCGPCPKNWICYKNNCYQFFDESKNWYESQASCMSQNASLLKVYSKEDQDLLKLVKSYHWMGLVHIPTNGSWQWEDGSILSPNLLTIIEMQKGDCALYASSFKGYIENCSTPNTYICMQRTV
